Legend:
[1] = molecular target: the molecule itself; assay: MST; both copies in the apo (copper-free) state; Alexa Fluor 488-labeled chaperone 20 nM, unlabeled chaperone 4.6 to 400 nM; 300 mM NaCl, 50 mM HEPES, 0.05% Tween-20, pH 7.5, no DTT; room temperature; one-site binding model; apparent KD; dimer to monomers
[2] = molecular target: the molecule itself; assay: MST; only one copy preloaded with copper (CCH: labeled copy copper-loaded, unlabeled copper-free; CCHΔ: unlabeled copy copper-loaded, labeled copper-free); labeled chaperone 20 nM, unlabeled 0.4 to 6.25 µM; 300 mM NaCl, 50 mM HEPES, 0.05% Tween-20, pH 7.5; room temperature; one-site binding model; apparent KD; dimer to monomers

Protein	Kd [1] [µM]	Kd [2] [µM]
CCHΔ, truncation mutant of CCH lacking the C-terminal extension (domain or fragment, Arabidopsis thaliana, UniProt O82089 1-70, looked up, also: Alexa Fluor 488 NHS ester on amines (labeled copy only), Used copper-free (apo) or preloaded with Cu(I) from Cu(I)-(BCA)2; A TEV site follows the His-tag; source: E. coli, purified (IMAC, TEV digestion, SEC); not shown: 10xHis, N-terminal, cleaved) MAQTVVLKVGMSCQGCVGAVNRVLGKMEGVESFDIDIKEQKVTVKGNVEPEAVFQTVSKTGKKTSYWPVE	0.057 ± 0.009	0.169 ± 0.051
copper chaperone CCH (full-length CCH) from Arabidopsis (natural protein, Arabidopsis thaliana, UniProt O82089 1-120, looked up, Alexa Fluor 488 NHS ester on amines (only the labeled copy in MST), Used copper-free (apo) or preloaded with Cu(I) from Cu(I)-(BCA)2; A TEV site follows the His-tag; Vector pETEV16b-CCH; also called apo-CCH; Cu(I)-CCH; source: E. coli, purified (IMAC, TEV digestion, SEC); not shown: 10xHis, N-terminal, cleaved) MAQTVVLKVGMSCQGCVGAVNRVLGKMEGVESFDIDIKEQKVTVKGNVEPEAVFQTVSKTGKKTSYWPVEAEAEPKAEADPKVETVTETKTEAETKTEAKVDAKADVEPKAAEAETKPSQ	0.018 ± 0.006	0.078 ± 0.039

Reference: PMC11330527, “Structure and dimerization properties of the plant-specific copper chaperone CCH” (Scientific Reports, 2024)
